This series concerns the molecule itself. In words: CD thermal denaturation at 222 nm, 16 uM, homodimer. The protocol:
16 μM of Mad1*DN, Mad1*DN-KR and/or Max* diluted in Phosphate buffer (50 mM) containing 50 mM KCl and 0.5 mM TCEP were subjected to temperature increase as the dichroic signal corresponding to α-Helical signal (222 nm) was recorded. Individual denaturation curves for each protein was recorded. To compare the heterodimeric complex formation, Mad1*DN or Mad1*DN-KR were mixed with Max* at equimolar concentration (16 μM each) in the same buffer adjusted at 1 mM TCEP. The experimental denaturation curves of the complexes (Mad1*DN/Max* or Mad1DN-KR/Max*) were compared to the summation of the individual curves of each homodimer which correspond to an absence of interaction between the two proteins in solution.

B1: Mad1*DN-KR (Mad1 b-HLH-LZ domain with C75S, E77K, G81R, C111S, D112N) (other)
chain: MSRSTHNEMEKNRRAHLRLSLKKLKRLVPLGPESSRHTTLSLLTKAKLHIKKLEDSNRKAVHQVDQLQREQRHLKRQLEKLGGSGC
notes: Engineered variant of the human Mad1 b-HLH-LZ domain; It forms a homodimer alone and a heterodimer with Max*; also called KR analog of Mad1*DN
With B1, the binding result is given as “binds”.

These data come from US20200299341A1 (SOCIETE DE COMMERCIALISATION DES PRODUITS DE LA RECHERCHE …, published 2020).
